# Data as given in IntAct's records for PubMed 24418540.
# Target: pebb_human CBFB (UniProt Q13951)
row,Substance,effect of a mutation on the interaction
1,"Virion infectivity factor (Human immunodeficiency virus type 1 group M subtype B (isolate HXB2) (HIV-1)), P69723 W21A",disrupting interaction strength
2,"Virion infectivity factor (Human immunodeficiency virus type 1 group M subtype B (isolate HXB2) (HIV-1)), P69723 E88A;W89A",disrupting interaction strength
3,"Virion infectivity factor (Human immunodeficiency virus type 1 group M subtype B (isolate HXB2) (HIV-1)), P69723 W38A",decreasing interaction strength
4,"Virion infectivity factor (Human immunodeficiency virus type 1 group M subtype B (isolate HXB2) (HIV-1)), P69723 Y69A",decreasing interaction strength
5,"Virion infectivity factor (Human immunodeficiency virus type 1 group M subtype B (isolate HXB2) (HIV-1)), P69723 W89A",disrupting interaction strength
